Measured values reported in patent US20150322135A1 (Pfizer, published 2015).

What was measured:
Mouse FcRn protein [1] = target: T1, Mouse FcRn protein (mouse, UniProt Q61559 22-297); test: SPR pH-switch assay: mouse FcRn immobilised, variant bound at pH 6.0, percent bound in the dissociation phase at neutral pH against pH 6.0
T1 construct: Bought protein; called soluble in the 1-to-1 assay and amine-coupled to the chip in the avidity and pH-switch assays; also called soluble mouse FcRn protein; neonatal Fc receptor
Procedure: (§1) The FcRn binding assays were carried out using a surface plasmon resonance (SPR) biosensor, Biacore 3000 (Biacore, Uppsala, Sweden). The sensor chip CM5, surfactant P20, N-ethyl-N-(3-dimethylaminopropyl)carbodiimide (EDC), N-hydroxysuccinimide (NHS), and 1 M ethanolamine (pH 8.5) were purchased from GE Healthcare (Piscataway, N.J.). The SPR experiments were conducted at 25° C. in PBS buffer (pH 6.0) with 0.005% P20. A Mouse FcRn protein was purchased from ARVYS Proteins, Inc. (Stamford, Conn.). All the experiments were repeated three times.
pH-Switch Assay: In order to evaluate the efficiency of dissociation of Fab-monoFc variants from FcRn at neutral pH, the “pH-switch assay” modified from the method that was previously reported was employed. See, e.g., Wang et al., Drug Metab. Dispos. 39, 1469-1477 (2011). In this assay, mouse FcRn protein was immobilized on a CM5 sensor chip by the amine coupling method. The binding was measured by injecting 100 uM of Fab-monoFc variants in running buffer (PBS, pH 6.0) followed by injection of either running buffer (PBS, pH 6.0) or neutral buffer (PBS, pH 7.2) alone over the FcRn surface at flow rate of 50 μL/min.

Mouse FcRn protein [2] = target: T1, Mouse FcRn protein; test: SPR avidity format: mouse FcRn immobilised on CM5 chip, variant injected, pH 6.0, steady state
Procedure: as §1
(§2) Avidity Assay: —In order to assess the avidity of analyte (molecule in mobile phase), the SPR-based “avidity assay format” was performed as previously described. See, e.g., Zalevsky et al., Nature Biotech. 28, 157-159; Yeung et al., J. Immunol. 182, 7663-7671 (2009); and Suzuki et al., J. Immunol. 184, 1968-1976 (2010). That is, mouse FcRn protein was immobilized on a CM5 sensor chip by the amine coupling method as described above. The equilibrium binding was measured by injecting 30 μL, of Fab-monoFc variants over the FcRn surface at flow rate of 2 μL/min. The sensor surfaces were regenerated by running 100 mM tris-HCl, pH 8.0 for 1 min.

Mouse FcRn protein [3] = target: T1, Mouse FcRn protein; test: SPR avidity format: FcRn localized on the chip surface
Procedure: as §1, §2

Mouse FcRn protein [4] = target: T1, Mouse FcRn protein; test: SPR 1-to-1 format: variant amine-coupled to CM5 chip, soluble mouse FcRn injected, pH 6.0, steady state
Procedure: as §1
1-to-1 binding Assay—Immobilization of engineered N-glycosylated Fc variants or Fab-mono engineered N-glycosylated Fc variants on a CM5 sensor chip was conducted by the amine coupling method. Briefly, 20 μM protein solution was diluted 20 times in 10 mM acetate (pH 4.5) and injected onto a biosensor surface which had been pre-activated with a 20 uL injection of 1:1 mixture of 200 mM EDC and 50 mM NHS, followed by the injection of 1 M ethanolamine-HCl (pH 8.5). For reference surface, one flow cell was activated by the EDC-NHS mixture and deactivated by ethanol amine without protein. The equilibrium binding was measured by injecting 150 uL of soluble mouse FcRn protein at flow rate of 5 uL/min. The sensor surfaces were regenerated by running PBS buffer (pH 7.2) for 1 min. We observed that all the binding curves of each concentration reached the plateau at the end of injection (30 min).

T1 sequence (Q61559 22-297): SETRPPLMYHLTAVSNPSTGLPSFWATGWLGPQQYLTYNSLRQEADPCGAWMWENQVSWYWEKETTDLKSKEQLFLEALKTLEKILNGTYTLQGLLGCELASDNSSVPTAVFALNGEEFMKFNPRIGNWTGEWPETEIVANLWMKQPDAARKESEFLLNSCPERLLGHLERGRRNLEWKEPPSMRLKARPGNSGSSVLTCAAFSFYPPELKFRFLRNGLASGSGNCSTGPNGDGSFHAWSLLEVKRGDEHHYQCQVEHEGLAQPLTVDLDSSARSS

Row | % bound (Mouse FcRn protein [1]) | Kd (Mouse FcRn protein [2]) | fold higher affinity than Fab-CH23 (avidity assay) (Mouse FcRn protein [3]) | Kd (Mouse FcRn protein [4]) | Binder
1 | 1.1% | 180 nM | – | 230 nM | Fab-CH23-HEK (Fab-CH23 [N364/N407] produced from HEK293 transient expression system) (Fc fusion, N-linked glycans at Asn297 (natural) and engineered Asn364 and Asn407 (EU numbering), HEK293 glycoform, Same construct as Fab-CH23, made in HEK293 cells instead of CHO cells) heavy: EVQLVESGGGLVQPGGSLRLSCAASGFTFSNYDMYWVRQTTGKGLEWVSAIGTAGDTYYPGSVKGRFTISRENAKNSLYLQMNSLRAGDTAVYYCAREKSSTSAFDYWGQGTLVTVSSASTKGPSVFPLAPSSKSTSGGTAALGCLVKDYFPEPVTVSWNSGALTSGVHTFPAVLQSSGLYSLSSVVTVPSSSLGTQTYICNVNHKPSNTKVDKKVEPKSCDKTHTGGGGSGGGGSGGPSVFLFPPKPKDTLMISRTPEVTCVVVDVSHEDPEVKFNWYVDGVEVHNAKTKPREEQYNSTYRVVSVLTVLHQDWLNGKEYKCKVSNKALPAPIEKTISKAKGQPREPQVYTLPPSREEMTKNQVNLTCLVKGFYPSDIAVEWESNGQPENNYKTTPPVLDSDGSFFLNSTLTVDKSRWQQGNVFSCSVMHEALHNHYTQKSLSLSPGK light: not shown
2 | 20% | 35 nM | – | 68 nM | Fab-CH23[M428L/N434S] (FcRn enhancement variant) (Fc fusion, N-linked glycans at Asn297 (natural) and engineered Asn364 and Asn407 (EU numbering), Made in CHO cells; also called Fab-CH23 [M428L/N434L]) heavy: EVQLVESGGGLVQPGGSLRLSCAASGFTFSNYDMYWVRQTTGKGLEWVSAIGTAGDTYYPGSVKGRFTISRENAKNSLYLQMNSLRAGDTAVYYCAREKSSTSAFDYWGQGTLVTVSSASTKGPSVFPLAPSSKSTSGGTAALGCLVKDYFPEPVTVSWNSGALTSGVHTFPAVLQSSGLYSLSSVVTVPSSSLGTQTYICNVNHKPSNTKVDKKVEPKSCDKTHTGGGGSGGGGSGGPSVFLFPPKPKDTLMISRTPEVTCVVVDVSHEDPEVKFNWYVDGVEVHNAKTKPREEQYNSTYRVVSVLTVLHQDWLNGKEYKCKVSNKALPAPIEKTISKAKGQPREPQVYTLPPSREEMTKNQVNLTCLVKGFYPSDIAVEWESNGQPENNYKTTPPVLDSDGSFFLNSTLTVDKSRWQQGNVFSCSVLHEALHSHYTQKSLSLSPGK light: not shown

The next lines start with the binder.

Row | Binder | % bound (Mouse FcRn protein [1]) | Kd (Mouse FcRn protein [2]) | fold higher affinity than Fab-CH23 (avidity assay) (Mouse FcRn protein [3]) | Kd (Mouse FcRn protein [4])
3 | Fab-CH23-CH23 (tandem CH23 construct comprising two engineered Fc polypeptides) (Fc fusion, N-linked glycans at Asn297 (natural) and engineered Asn364 and Asn407 (EU numbering) in each of the two CH23 units, Made in CHO cells; also called Fab-CH23-4XGS-CH23; tandem CH23-CH23) heavy: EVQLVESGGGLVQPGGSLRLSCAASGFTFSNYDMYWVRQTTGKGLEWVSAIGTAGDTYYPGSVKGRFTISRENAKNSLYLQMNSLRAGDTAVYYCAREKSSTSAFDYWGQGTLVTVSSASTKGPSVFPLAPSSKSTSGGTAALGCLVKDYFPEPVTVSWNSGALTSGVHTFPAVLQSSGLYSLSSVVTVPSSSLGTQTYICNVNHKPSNTKVDKKVEPKSCDKTHTGGGGSGGGGSGGPSVFLFPPKPKDTLMISRTPEVTCVVVDVSHEDPEVKFNWYVDGVEVHNAKTKPREEQYNSTYRVVSVLTVLHQDWLNGKEYKCKVSNKALPAPIEKTISKAKGQPREPQVYTLPPSREEMTKNQVNLTCLVKGFYPSDIAVEWESNGQPENNYKTTPPVLDSDGSFFLNSTLTVDKSRWQQGNVFSCSVMHEALHNHYTQKSLSLSPGGGGSGGGGSGGGGSGGGGSGGPSVFLFPPKPKDTLMISRTPEVTCVVVDVSHEDPEVKFNWYVDGVEVHNAKTKPREEQYNSTYRVVSVLTVLHQDWLNGKEYKCKVSNKALPAPIEKTISKAKGQPREPQVYTLPPSREEMTKNQVNLTCLVKGFYPSDIAVEWESNGQPENNYKTTPPVLDSDGSFFLNSTLTVDKSRWQQGNVFSCSVMHEALHNHYTQKSLSLSPGK light: not shown | 14% | 4.5 nM | ~40 fold | 250 nM
4 | Fab-CH23 (Fab-CH23-N364/N407), Fab of an anti-KLH antibody fused to CH23 (Fc fusion, N-linked glycans at Asn297 (natural) and engineered Asn364 and Asn407 (EU numbering), also called Fab-monoFc) heavy: EVQLVESGGGLVQPGGSLRLSCAASGFTFSNYDMYWVRQTTGKGLEWVSAIGTAGDTYYPGSVKGRFTISRENAKNSLYLQMNSLRAGDTAVYYCAREKSSTSAFDYWGQGTLVTVSSASTKGPSVFPLAPSSKSTSGGTAALGCLVKDYFPEPVTVSWNSGALTSGVHTFPAVLQSSGLYSLSSVVTVPSSSLGTQTYICNVNHKPSNTKVDKKVEPKSCDKTHTGGGGSGGGGSGGPSVFLFPPKPKDTLMISRTPEVTCVVVDVSHEDPEVKFNWYVDGVEVHNAKTKPREEQYNSTYRVVSVLTVLHQDWLNGKEYKCKVSNKALPAPIEKTISKAKGQPREPQVYTLPPSREEMTKNQVNLTCLVKGFYPSDIAVEWESNGQPENNYKTTPPVLDSDGSFFLNSTLTVDKSRWQQGNVFSCSVMHEALHNHYTQKSLSLSPGK light: not shown | 5.6% | 180 nM | – | 250 nM
